Assay [1] deals with BDNF pro-peptide V66M pro-peptide (Homo sapiens) (UniProt P23560). As to the kind of experiment: SPR. Conditions: cited from earlier work.
Assay [2] addresses BDNF pro-peptide pro-peptide (Homo sapiens) (UniProt P23560). The assay can be described thus: SPR. Conditions: cited from earlier work.
Assay [3] has as its target human proBDNF V66M variant (human). The assay can be described thus: SAXS; hproBDNF V66M in solution at five concentrations (0.14–1.45 mg/mL), 50 mM Sodium Phosphate pH 7.0, 283 K; molecular mass from I(0) against BSA and from the Porod volume, compared with the calculated monomer mass.

Our source for the Kd and stoichiometry N values is article PMC9224406.

Sequence of BDNF (P23560 129-247): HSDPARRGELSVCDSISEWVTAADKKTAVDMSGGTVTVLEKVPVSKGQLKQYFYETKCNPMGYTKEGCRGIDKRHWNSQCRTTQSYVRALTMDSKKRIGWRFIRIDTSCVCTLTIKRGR
Sequence of BDNF pro-peptide V66M pro-peptide (Homo sapiens) (P23560 19-128 V66M): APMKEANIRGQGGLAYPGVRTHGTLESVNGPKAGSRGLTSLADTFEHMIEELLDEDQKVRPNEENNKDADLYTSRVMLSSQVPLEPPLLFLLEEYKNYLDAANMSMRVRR
Sequence of BDNF pro-peptide pro-peptide (Homo sapiens) (P23560 19-128): as the sequence (P23560 19-128 V66M) above, with M48V counted along it

Consider BDNF (from UniProt P23560), for which the Kd in assay [1] is 0.12 nM; in assay [2], 0.42 nM.
Regarding “human proBDNF V66M variant (natural protein)”, the stoichiometry N in assay [3] was 2.
